The values that follow come from paper PMC2831308.

The test system of the data set is carboxyltransferase (CT) alpha2beta2, wild-type (Escherichia coli). As to the kind of experiment: EMSA. A general note: A gel shift assay detects complexes by their altered migration in electrophoresis.

In turn, “CT alpha transcript, 213 nt upstream of AUG to gene end” returned a Kd of 145 nM.

A word on the Kd: it is the free concentration of one partner at which half of the binding sites on the other are occupied at equilibrium, for simple one-to-one binding. High values mean lower affinity, low ones higher affinity.
